Experimental data reported in PMC12114895, “Lanthanides-Based Nanoparticles Conjugated with Rose Bengal for FRET-Mediated X-Ray-Induced PDT” (Pharmaceuticals, 2025).
Ends that are not written are not given here. RB = not defined here

Key:
NRP-1 = NRP-1 (Homo sapiens, UniProt O14786); assay: NRP-1 binding, competitive assay; conditions: printed in the figure, read-out: IC50 ± SD (NRP-1, Figure 12)
Method: The affinity of AGuIX Ln@Mal-K(RB) and AGuIX Ln@Mal-K(RB)DKPPR to NRP-1 was determined as previously described in terms of IC50 in another study.

Zeta potential = type: physicochemical; conditions: DLS, Zetasizer Nano-Z, He-Ne 633 nm; pH 7.2 mentioned; listed as AGuIX Ln@Mal-K(RB)DKPPR (Ln = Tb)
Method: The zeta potential (ξ) for each NPs was determined using Zetasizer Nano-Z (Malvern, UK) equipped with a He-Ne laser at 633 nm.

[1] = Hydrodynamic size by TDA-ICP-MS; type: physicochemical; conditions: Table 4, listed as AGuIX Ln@Mal-K(RB)DKPPR (Ln = Tb)
Method: TDA experiments were conducted using a TDA-ICP-MS hyphenation between a Sciex P/ACE MDQ instrument and a 7700 Agilent ICP-MS. Fused silica capillaries with an inner diameter of 75 µm and outer diameter of 375 µm, and a total length of 64 cm, were coated with hydroxypropylcellulose (HPC) using a solution of 0.05 g mL^−1 in water. Detection was carried out by ICP-MS at m/z = 158 and m/z = 159 for Gd and Tb detection, respectively. Samples were hydrodynamically injected (0.3psi for 3 s), then mobilized using Tris 10 mM and NaCl 125 mM at 0.7 psi. Between runs, the capillary was flushed at 5 psi for 5 min with the mobilization medium. All measurements were performed at least in duplicates.
The detected peak was fitted by a sum of Gaussian distributions using Origin 8.5 software, according to Equation (8).(8) St=∑i=12Ai/σi 2πexp−t−t0^2/2σi2 where t0 is the peak residence time, and […] are the area under the curve and the temporal variance associated with each species i, respectively.
Under these experimental conditions, the molecular diffusion coefficient D is given by(9) D=Rc2t0/24σ^2=2kBT/6πηDh where Rc is the capillary radius, kB is the Boltzmann constant, T is the temperature, η is the viscosity, and Dh is the hydrodynamic diameter of the solute.
Therefore, using Equation (9), the hydrodynamic diameters can be calculated from the temporal variances measured from the fitted Taylorgram.

RB fluorescence lifetime = type: physicochemical; conditions: D2O, λexc = 470 nm; listed as AGuIX Ln@Mal-K(RB)DKPPR (Ln = Tb)
Method: The Ln luminescence lifetime is recorded after excitation at 545 nm for Tb and 313 nm for Gd. The fluorescence lifetime of RB is recorded after excitation at 470 nm ( τf470 ). ^1O2 emission spectra are obtained after excitation at 558 nm (maximum absorption wavelength of RB) but also after excitation at 351 nm for Tb and 273 nm for Gd.
(§1) Absorption spectra were recorded on a UV-3600 UV–visible double beam spectrophotometer (Shimadzu, Marne-La-Vallée, France). Fluorescence spectra were recorded on a Fluorolog FL3-222 spectrofluorimeter (Horiba Jobin Yvon, Palaiseau, France) equipped with a 450 W Xenon lamp and thermostated cell compartment (25 °C), a UV–visible photomultiplier R928 (Hamamatsu Photonics, Hamamatsu, Japan) and an InGaAs infrared detector (DSS-16A020L Electro-Optical System Inc, Phoenixville, PA, USA). The excitation beam was diffracted by a double ruled grating SPEX monochromator (1200 grooves/mm blazed at 330 nm). The emission beam was diffracted by a double ruled grating SPEX monochromator (1200 grooves/mm blazed at 500 nm). Singlet oxygen emission was detected through a double ruled grating SPEX monochromator (600 grooves/mm blazed at 1 µm) and a long-wave pass (780 nm). All spectra were measured in four-face quartz vials.

Ln luminescence lifetime = type: physicochemical; conditions: D2O, λexc/λdetection = 351/545 nm
[2] = Singlet oxygen production quantum yield; type: physicochemical; conditions: D2O, reference Eosin Y
[3] = Fluorescence quantum yield; type: physicochemical; conditions: D2O, λexc = 558 nm; reference tetraphenylporphyrin
Method: as §1
The fluorescence quantum yield (Φf) is calculated using Equation (6).(6) Φf=Φf0 . If/If0.OD0/OD. (n/n0)^2 where Φf and Φf0, If and If0, OD and OD0, n and n0 are the quantum yields, fluorescence intensities, optical densities, and refractive indices of the sample and reference, respectively.
Tetraphenylporphyrin (TPP) was chosen as the fluorescence reference standard (Φf0 = 0.11, toluene).

U-251 MG cells = assay: Anchorage-dependent clonogenic assay with X-ray irradiation; type: cell-based, human; conditions: [RB] = 1 µM, 24 h, clones after 7 days

NRP-1, sequence (O14786 22-923): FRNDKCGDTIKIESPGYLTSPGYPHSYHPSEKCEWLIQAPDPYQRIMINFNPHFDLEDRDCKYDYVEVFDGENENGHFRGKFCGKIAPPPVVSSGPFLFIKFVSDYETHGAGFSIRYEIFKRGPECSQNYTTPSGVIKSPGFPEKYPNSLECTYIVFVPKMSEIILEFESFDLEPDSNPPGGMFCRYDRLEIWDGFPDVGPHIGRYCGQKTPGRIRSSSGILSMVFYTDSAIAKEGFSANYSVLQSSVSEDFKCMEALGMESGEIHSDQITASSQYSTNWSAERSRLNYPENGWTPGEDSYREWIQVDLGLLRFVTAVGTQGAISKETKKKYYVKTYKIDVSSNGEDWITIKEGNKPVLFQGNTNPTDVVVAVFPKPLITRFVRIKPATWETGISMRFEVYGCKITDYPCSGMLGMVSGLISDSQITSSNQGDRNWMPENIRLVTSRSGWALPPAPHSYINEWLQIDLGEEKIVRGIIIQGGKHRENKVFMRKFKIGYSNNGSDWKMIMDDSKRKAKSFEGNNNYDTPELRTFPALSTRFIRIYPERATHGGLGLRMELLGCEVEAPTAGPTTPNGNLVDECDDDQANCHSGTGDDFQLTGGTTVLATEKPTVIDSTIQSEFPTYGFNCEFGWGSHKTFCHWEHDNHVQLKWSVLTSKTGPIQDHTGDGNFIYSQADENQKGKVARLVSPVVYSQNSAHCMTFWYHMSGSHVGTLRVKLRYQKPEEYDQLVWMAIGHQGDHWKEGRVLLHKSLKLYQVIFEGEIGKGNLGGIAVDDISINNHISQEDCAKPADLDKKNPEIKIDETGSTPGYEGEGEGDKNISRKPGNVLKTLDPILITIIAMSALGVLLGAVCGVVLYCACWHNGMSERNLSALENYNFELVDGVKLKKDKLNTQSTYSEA

Substance	IC50 (NRP-1)	Zeta potential (ζ) (Zeta potential)	percentage of population P1 [1]	percentage of population P2 [1]	Size, population P1 ([1]; Tris 10 mM and NaCl 125 mM)	Size, population P2 ([1]; Tris 10 mM and NaCl 125 mM)	RB fluorescence lifetime τf470 (RB fluorescence lifetime)	Ln luminescence lifetime τL (Tb) (Ln luminescence lifetime)	^1O2 quantum yield ΦΔ351(Tb) ([2]; λexc = 351 nm)	^1O2 quantum yield ΦΔ558 ([2]; λexc = 558 nm, listed as AGuIX Ln@Mal-K(RB)DKPPR (Ln = Tb))	Fluorescence quantum yield Φf558 [3]	Cell survival (clonogenic capability relative to control) (U-251 MG cells; X-ray 2 Gy (320 kV, 10 mA, 3 Gy/min), fraction of untreated non-irradiated cells, mean, triplicates from 3 experiments (n = 9))	decrease of cell growth (clones) (U-251 MG cells; X-ray 2 Gy, p = 0.02)
Mal-K(RB)DKPPR [AGuIX Tb@Mal-K(RB)DKPPR] (not fully specified (N-terminus); printed as AGuIX Tb@Mal-K(RB)DKPPR; reading uncertain) [Mal-K(RB)DKPPR conjugated to thiolated AGuIX Tb NPs by thiol-maleimide click chemistry]	6 ± 1.3 nM												
Mal-K(RB)DKPPR [AGuIX Tb@Mal-K(RB)DKPPR, Mal-K(RB)DKPPR conjugated to thiolated AGuIX Tb NPs by thiol-maleimide click chemistry]		−14 mV	46%	54%	5.4 nm	32.0 nm	2.8 ns	345 µs	0.36	0.68	0.11	0.43	57%
